{"source": "patent US20180282403A1", "about": "“AGENTS FOR REDUCING THE ACTIVITY OF GDF15” (GENAGON THERAPEUTICS AB, priority 2015, published 2018)", "biological_target": "T1, GDF15 (Homo sapiens, UniProt Q99988)", "T1 construct": "purchased Abcam", "T1 sequence (Q99988 197-308 limits assumed)": "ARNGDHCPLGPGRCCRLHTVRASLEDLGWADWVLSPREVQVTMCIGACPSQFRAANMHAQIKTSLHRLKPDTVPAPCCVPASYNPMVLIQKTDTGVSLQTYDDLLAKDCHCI", "experiment": "Pepstar peptide array: GDF15 binding to 15-mers of extracellular loop2 (ECD3) of QRFPR", "conditions": "amino acid walk and alanine scan of 15-mers; FIG. 12", "excerpt": "In order to determine the key amino acids and a minimal epitope present in the third extracellular domain of QRFPR (extracellular loop 2) we designed a Pepstar peptide array, purchased from JPT peptides. In short the array included complete coverage of the extracellular loop2 of QRFPR, divided into 15-mers. Peptides of this length (15-mers) were selected based on recommended length by the manufacturer, based on factors such as efficiency of synthesis, purity and yield by FMOC chemistry. The 15-mers were either varied according to amino acid walk, single or double alanine scan. Each set was analysed in triplicates. GDF15 was diluted into PBS-T (0.05% Tween-20) and incubated under mild agitation on an orbital shaker overnight at +4 C. Washes was done under agitation on a Sky line orbital shaker DOS-10L, ELMI.\nPrimary antibodies against GDF15 were added to wells with prior GDF15 incubation and to adjacent control wells where GDF15 had been omitted (only PBS-T) and incubated for 1 hr RT under agitation on orbital shaker. After repeated washes fluorophore-conjugated secondary antibodies were added, and after final washes the array was analysed on a G2502 Microarray scanner, Agilent Technologies. Fluorescence values from technical controls and control wells (no GDF15) were subtracted and resulting values in triplicate was analysed in Excel and Prism.", "data": [{"sequence": "FLYEKEHIC (listed as Homo sapiens) [SEQ ID NO:11]", "values": [{"measurement": "GDF15 binding to immobilised QRFPR ECD3 peptides", "result": "essential for GDF15 binding"}]}]}
